Measured values from US20220396617A1 (BEIJING MABWORKS BIOTECH, published 2022).

T1: TIGIT (ECD)-hFc (human, UniProt Q495A1 22-141)
T1 construct: bought protein; also called recombinant human TIGIT (ECD)-hFc; Cat #: 10917-H02H, Sino Biological; not shown: human Fc (hFc) of the bought protein
T1 sequence: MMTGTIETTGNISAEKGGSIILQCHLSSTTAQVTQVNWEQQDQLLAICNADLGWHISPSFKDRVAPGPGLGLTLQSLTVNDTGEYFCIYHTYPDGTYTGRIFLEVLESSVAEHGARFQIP

T2: human TIGIT expressed on HEK293A cells (human, UniProt Q495A1 22-244)
T2 construct: also called HEK293A/human TIGIT cells
T2 sequence: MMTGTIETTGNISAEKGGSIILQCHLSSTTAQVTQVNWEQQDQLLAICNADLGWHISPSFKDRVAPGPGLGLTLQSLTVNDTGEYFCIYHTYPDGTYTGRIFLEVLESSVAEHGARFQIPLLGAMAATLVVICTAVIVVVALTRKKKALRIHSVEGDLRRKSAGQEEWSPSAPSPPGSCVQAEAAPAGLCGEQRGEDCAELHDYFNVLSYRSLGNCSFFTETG

T3: human TIGIT (ECD)-his (human, UniProt Q495A1 22-141)
T3 construct: bought protein; also called hTIGIT(ECD)-his; Cat #: 10917-H08H, Sino Biological; not shown: his tag of the bought protein
T3 sequence: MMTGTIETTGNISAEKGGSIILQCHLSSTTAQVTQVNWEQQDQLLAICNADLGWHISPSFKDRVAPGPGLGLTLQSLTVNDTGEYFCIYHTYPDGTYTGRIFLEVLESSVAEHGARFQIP


Assays:
TIGIT (ECD)-hFc [1] = target: T1, TIGIT (ECD)-hFc; test: FACS blocking assay (protocol of Example 7): serially diluted antibody pre-incubated with TIGIT (ECD)-hFc, then binding of TIGIT (ECD)-hFc to A549/human PVR cells measured; blocked ligand: human PVR [B]
[2] = target: T2, human TIGIT expressed on HEK293A cells; test: FACS, HEK293A/human TIGIT cells, serially diluted antibody (protocol of Example 5) [A]
[3] = target: T2, human TIGIT expressed on HEK293A cells; test: cell-based or functional assay
TIGIT (ECD)-hFc [4] = target: T1, TIGIT (ECD)-hFc; test: FACS blocking assay (protocol of Example 7): serially diluted antibody pre-incubated with TIGIT (ECD)-hFc, then binding of TIGIT (ECD)-hFc to A549/human PVR cells measured; blocked ligand: human PVR [A]
human TIGIT (ECD)-his = target: T3, human TIGIT (ECD)-his; test: SPR (BIAcore 8K), human TIGIT (ECD)-his on CM5 chip, antibody injected
Procedure: They were also tested in SPR assays for their binding affinities to human and monkey TIGITs using the BIAcore™ 8K instrument (GE Life Sciences, US). […] The binding affinities were calculated with the RUs of blank controls subtracted. The association rate (kₐ) and dissociation rate (kd) were calculated using the one-to-one Langmuir binding model (BIA Evaluation Software, GE Life Sciences, US). The equilibrium dissociation constant KD was calculated as the kd/kₐ ratio.

| Binder | IC50 (read off the curve) (TIGIT (ECD)-hFc [1]) [µg/mL] | EC50 (read off the curve) [2] [µg/mL] | NK92-mediated ADCC against HEK293A/human TIGIT cells, EC50 [3] [nM] | IC50 (read off the curve) (TIGIT (ECD)-hFc [4]) [µg/mL] | Kd (human TIGIT (ECD)-his) [nM] |
| --- | --- | --- | --- | --- | --- |
| 149G11-VH1VL1 (antibody, human IgG1, kappa, V domains shown, humanized, human IgG1/kappa) VH: QVQLVQSGAEVKKPGASVKVSCKASGYTFTNYWIHWVRQAPGQGLEWMGDIYPGGRYSNYNEKFRGRVTMTRDTSTSTVYMELSSLRSEDTAVYYCARYYESAMDFWGQGTTVTVSS VL: DIVMTQSPDSLAVSLGERATINCKSSQNLLYNSNQKSYLAWYQQKPGQPPKLLIYWASTRESGVPDRFSGSGSGTDFTLTISSLQAEDVAVYYCQQYYNYPFTFGAGTKLELKR | ~2 | ~0.2 |  |  |  |
| 149G11-VH2VL2 (antibody, human IgG1, kappa, V domains shown, humanized, human IgG1/kappa) VH: QVQLVQSGAEVKKPGASVKVSCKASGYTFTNYWIHWVRQAPGQGLEWIGDIYPGGRYSNYNEKFRGRVTLTADTSTSTVYMELSSLTSEDTAVYYCARYYESAMDFWGQGTTVTVSS VL: DIVMTQSPDSLAVSLGERATINCKSSQNLLYNSNQKSYLAWFQQKPGQPPKLLIYWASTRESGVPDRFSGSGSGTDFTLTISSLQAEDLAVYYCQQYYNYPFTFGAGTKLELKR |  | ~0.2 | 0.0162 |  |  |
| Etigilimab (antibody, V domains shown) VH: QVQLQESGPGLVKPSETLSLTCAVSGYSITSDYAWNWIRQPPGKGLEWIGYISYSGSTSYNPSLRSRVTISRDTSKNQFFLKLSSVTAADTAVYYCARRQVGLGFAYWGQGTLVTVSS VL: DIQMTQSPSSLSASVGDRVTITCKASQDVSTAVAWYQQKPGKAPKLLIYSASYRYTGVPSRFSGSGSGTDFTFTISSLQPEDIATYYCQQHYSTPWTFGQGTKVEIK |  |  |  | ~4 |  |
| 70E11-VH3VL3 (antibody, human IgG1, kappa, V domains shown, humanized, human IgG1/kappa) VH: QVQLVQSGAEVKKPGASVKVSCKASGYTFTSYNVHWVRQAPGQGLEWIGTIYPGNLATSYNQKFKGRVTLTADKSTSTVYMELSSLRSEDTAVYYCARSGTMDYWGQGTTVTVSS VL: EIVLTQSPGTLSLSPGERATLSCRASSSISSTYLHWYQQKPGASPKLLIYNTQNLASGIPDRFSGSGSGTSYTLTISRLEPEDFAVYYCQQFGGYPLITFGAGTKLELKR |  |  | 0.0191 | ~4 | 0.124 |
| 70E11-VH3VL2 (antibody, human IgG1, kappa, V domains shown, humanized, human IgG1/kappa) VH: QVQLVQSGAEVKKPGASVKVSCKASGYTFTSYNVHWVRQAPGQGLEWIGTIYPGNLATSYNQKFKGRVTLTADKSTSTVYMELSSLRSEDTAVYYCARSGTMDYWGQGTTVTVSS VL: EIVLTQSPGTLSLSPGERATLSCRASSSISSTYLHWYQQKPGQAPKLLIYNTQNLASGIPDRFSGSGSGTSFTLTISRLEPEDFAVYYCQQFGGYPLITFGAGTKLELKR |  |  |  | ~4 |  |
| 70E11-VH3VL4 (antibody, human IgG1, kappa, V domains shown, humanized, human IgG1/kappa) VH: QVQLVQSGAEVKKPGASVKVSCKASGYTFTSYNVHWVRQAPGQGLEWIGTIYPGNLATSYNQKFKGRVTLTADKSTSTVYMELSSLRSEDTAVYYCARSGTMDYWGQGTTVTVSS VL: EIVLTQSPGTLSLSPGERATMTCRASSSISSTYLHWYQQKPGASPKLLIYNTQNLASGVPARFSGSGSGTSYTLTISRLEPEDFAVYYCQQFGGYPLITFGAGTKLELKR |  |  |  | ~4 | 0.0502 |
| 70E11-VH2VL3 (antibody, human IgG1, kappa, V domains shown, humanized, human IgG1/kappa) VH: QVQLVQSGAEVKKPGASVKVSCKASGYTFTSYNVHWVRQAPGQGLEWMGTIYPGNLATSYNQKFKGRVTLTADTSTSTVYMELSSLRSEDTAVYYCARSGTMDYWGQGTTVTVSS VL: EIVLTQSPGTLSLSPGERATLSCRASSSISSTYLHWYQQKPGASPKLLIYNTQNLASGIPDRFSGSGSGTSYTLTISRLEPEDFAVYYCQQFGGYPLITFGAGTKLELKR |  |  |  | ~4 |  |
| 70E11-VH1VL1 (antibody, human IgG1, kappa, V domains shown, humanized, human IgG1/kappa) VH: QVQLVQSGAEVKKPGASVKVSCKASGYTFTSYNVHWVRQAPGQGLEWMGTIYPGNLATSYNQKFKGRVTMTRDTSTSTVYMELSSLRSEDTAVYYCARSGTMDYWGQGTTVTVSS VL: EIVLTQSPGTLSLSPGERATLSCRASSSISSTYLHWYQQKPGQAPRLLIYNTQNLASGIPDRFSGSGSGTDFTLTISRLEPEDFAVYYCQQFGGYPLITFGAGTKLELKR |  |  | 0.00436 | ~4 |  |
| 70E11-VH2VL4 (antibody, human IgG1, kappa, V domains shown, humanized, human IgG1/kappa; also called 70E11H2L4) VH: QVQLVQSGAEVKKPGASVKVSCKASGYTFTSYNVHWVRQAPGQGLEWMGTIYPGNLATSYNQKFKGRVTLTADTSTSTVYMELSSLRSEDTAVYYCARSGTMDYWGQGTTVTVSS VL: EIVLTQSPGTLSLSPGERATMTCRASSSISSTYLHWYQQKPGASPKLLIYNTQNLASGVPARFSGSGSGTSYTLTISRLEPEDFAVYYCQQFGGYPLITFGAGTKLELKR |  |  | 0.0172 | ~4 | 0.43 |
| 70E11-VH5VL3 (antibody, human IgG1, kappa, V domains shown, humanized, human IgG1/kappa; also called 70E11H5L3) VH: QVQLVQSGAEVKKPGASVKVSCKASGYTFTSYNVHWVKQTPGQGLEWIGTIYPGNLATSYNQKFKGKATLTADKSTSTVYMELSSLRSEDTAVYYCARSGTMDYWGQGTTVTVSS VL: EIVLTQSPGTLSLSPGERATLSCRASSSISSTYLHWYQQKPGASPKLLIYNTQNLASGIPDRFSGSGSGTSYTLTISRLEPEDFAVYYCQQFGGYPLITFGAGTKLELKR |  |  | 0.00714 | ~4 | 0.25 |
| 70E11-VH4VL2 (antibody, human IgG1, kappa, V domains shown, humanized, human IgG1/kappa) VH: QVQLVQSGAEVKKPGASVKVSCKASGYTFTSYNVHWVKQTPGQGLEWIGTIYPGNLATSYNQKFKGRVTLTADKSTSTVYMELSSLRSEDTAVYYCARSGTMDYWGQGTTVTVSS VL: EIVLTQSPGTLSLSPGERATLSCRASSSISSTYLHWYQQKPGQAPKLLIYNTQNLASGIPDRFSGSGSGTSFTLTISRLEPEDFAVYYCQQFGGYPLITFGAGTKLELKR |  |  | 0.00912 | ~4 |  |
| 70E11-VH5VL2 (antibody, human IgG1, kappa, V domains shown, humanized, human IgG1/kappa) VH: QVQLVQSGAEVKKPGASVKVSCKASGYTFTSYNVHWVKQTPGQGLEWIGTIYPGNLATSYNQKFKGKATLTADKSTSTVYMELSSLRSEDTAVYYCARSGTMDYWGQGTTVTVSS VL: EIVLTQSPGTLSLSPGERATLSCRASSSISSTYLHWYQQKPGQAPKLLIYNTQNLASGIPDRFSGSGSGTSFTLTISRLEPEDFAVYYCQQFGGYPLITFGAGTKLELKR |  |  |  | ~4 |  |
| 70E11-VH2VL2 (antibody, human IgG1, kappa, V domains shown, humanized, human IgG1/kappa) VH: QVQLVQSGAEVKKPGASVKVSCKASGYTFTSYNVHWVRQAPGQGLEWMGTIYPGNLATSYNQKFKGRVTLTADTSTSTVYMELSSLRSEDTAVYYCARSGTMDYWGQGTTVTVSS VL: EIVLTQSPGTLSLSPGERATLSCRASSSISSTYLHWYQQKPGQAPKLLIYNTQNLASGIPDRFSGSGSGTSFTLTISRLEPEDFAVYYCQQFGGYPLITFGAGTKLELKR |  |  |  | ~4 |  |
| 70E11-VH5VL4 (antibody, human IgG1, kappa, V domains shown, humanized, human IgG1/kappa) VH: QVQLVQSGAEVKKPGASVKVSCKASGYTFTSYNVHWVKQTPGQGLEWIGTIYPGNLATSYNQKFKGKATLTADKSTSTVYMELSSLRSEDTAVYYCARSGTMDYWGQGTTVTVSS VL: EIVLTQSPGTLSLSPGERATMTCRASSSISSTYLHWYQQKPGASPKLLIYNTQNLASGVPARFSGSGSGTSYTLTISRLEPEDFAVYYCQQFGGYPLITFGAGTKLELKR |  |  |  | ~4 |  |
| 70E11-VH4VL4 (antibody, human IgG1, kappa, V domains shown, humanized, human IgG1/kappa) VH: QVQLVQSGAEVKKPGASVKVSCKASGYTFTSYNVHWVKQTPGQGLEWIGTIYPGNLATSYNQKFKGRVTLTADKSTSTVYMELSSLRSEDTAVYYCARSGTMDYWGQGTTVTVSS VL: EIVLTQSPGTLSLSPGERATMTCRASSSISSTYLHWYQQKPGASPKLLIYNTQNLASGVPARFSGSGSGTSYTLTISRLEPEDFAVYYCQQFGGYPLITFGAGTKLELKR |  |  |  | ~4 |  |
| 70E11-VH4VL3 (antibody, human IgG1, kappa, V domains shown, humanized, human IgG1/kappa) VH: QVQLVQSGAEVKKPGASVKVSCKASGYTFTSYNVHWVKQTPGQGLEWIGTIYPGNLATSYNQKFKGRVTLTADKSTSTVYMELSSLRSEDTAVYYCARSGTMDYWGQGTTVTVSS VL: EIVLTQSPGTLSLSPGERATLSCRASSSISSTYLHWYQQKPGASPKLLIYNTQNLASGIPDRFSGSGSGTSYTLTISRLEPEDFAVYYCQQFGGYPLITFGAGTKLELKR |  |  | 0.00729 | ~4 |  |
